Where two headings read alike, the source gives them in different places.
Experiments:
[1] = target: PorZ from Porphyromonas gingivalis (Porphyromonas gingivalis) (UniProt Q9S3Q8); assay: MST
[2] = target: PorZ from Porphyromonas gingivalis (Porphyromonas gingivalis) (UniProt Q9S3Q8); assay: MST; remark: listed apart in the source

“PorU sortase from Porphyromonas gingivalis, hexahistidine-tagged (from UniProt B2RGP6 1-1158) (enzyme)” gave a Kd [1] of 3380 nM and a Kd [2] of 672 nM.

Source: paper doi:10.1101/2020.07.16.206169
